Article PMC12410180, “An anti-CEA affibody showing high-definition staining in human pancreatic cancer tissue sections and selective tumor targeting in vivo” (Translational Oncology, 2025)

Biological target: T1, human CEA His6-tag (Acro BioSystems, cat. hCE5-H5226) (Homo sapiens, UniProt P06731)
T1 construct: human carcinoembryonic antigen (CEA, CEACAM5), recombinant, His6-tagged; Glycosylated; also called CEACAM5; carcinoembryonic antigen-related adhesion molecule 5; source: bought: Acro BioSystems, produced in HEK293 cells
T1 sequence (P06731 35-685): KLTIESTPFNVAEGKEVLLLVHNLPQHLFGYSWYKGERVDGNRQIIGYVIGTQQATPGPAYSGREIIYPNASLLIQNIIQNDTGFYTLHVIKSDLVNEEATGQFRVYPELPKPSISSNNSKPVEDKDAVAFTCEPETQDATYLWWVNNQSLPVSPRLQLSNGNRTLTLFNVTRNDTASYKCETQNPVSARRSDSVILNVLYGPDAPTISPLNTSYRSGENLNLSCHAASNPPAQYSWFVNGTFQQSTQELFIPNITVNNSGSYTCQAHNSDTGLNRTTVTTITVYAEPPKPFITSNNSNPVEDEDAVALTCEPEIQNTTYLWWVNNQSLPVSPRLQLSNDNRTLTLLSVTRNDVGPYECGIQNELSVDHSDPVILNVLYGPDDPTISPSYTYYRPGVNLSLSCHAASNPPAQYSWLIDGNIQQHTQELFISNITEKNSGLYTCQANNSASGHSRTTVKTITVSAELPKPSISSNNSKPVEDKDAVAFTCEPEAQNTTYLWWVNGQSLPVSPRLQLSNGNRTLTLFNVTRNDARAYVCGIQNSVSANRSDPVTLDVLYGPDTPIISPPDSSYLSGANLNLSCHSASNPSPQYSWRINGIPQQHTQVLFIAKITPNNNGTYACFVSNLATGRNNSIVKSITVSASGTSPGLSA
Assay: SPR; MFE-23 scFv dilution series (1-100 nM, 3-fold) over a freshly immobilized surface with CEA (2500 RU); 25 °C, PBST pH 7.4; Langmuir 1:1 fit
Conditions: both partners purified

B1: anti-CEA scFv fragment MFE-23 (scFv, V domains shown)
VH: QVKLQQSGAELVRSGTSVKLSCTASGFNIKDSYMHWLRQGPEQGLEWIGWIDPENGDTEYAPKFQGKATFTTDTSSNTAYLQLSSLTSEDTAVYYCNEGTPTGPYYFDYWGQGTTVTVSS
VL: ENVLTQSPAIMSASPGEKVTITCSASSSVSYMHWFQQKPGTSPKLWIYSTSNLASGVPARFSGSGSGTSYSLTISRMEAEDAATYYCQQRSSYPLTFGAGTKLELK
notes: Expressed from pET22b(+) with a PelB signal peptide; also called MFE-23 scFv; scFv MFE-23; source: E. coli BL21(DE3), periplasmic preparation, purified (IMAC)
- Kd: ~15 nM
